Assay [1] concerns the target T1, Antibody 16 IgG1, not germlined.
T1 construct: IgG1; also called Ab 16
Nature of the assay: competition binding assay: Antibody 16 IgG adsorbed to the plate, biotinylated active human PAI-1 plus a titration of the unlabelled competitor, streptavidin-Europium detection.

The target of assay [2] is active human PAI-1, recombinant, wild-type, non-glycosylated (E. coli) (human, UniProt P05121 24-402). Nature of the assay: cell-based or functional assay.
For a further assay, the target named is T2, rat PAI-1 (rat, UniProt P20961 24-402).
T2 sequence: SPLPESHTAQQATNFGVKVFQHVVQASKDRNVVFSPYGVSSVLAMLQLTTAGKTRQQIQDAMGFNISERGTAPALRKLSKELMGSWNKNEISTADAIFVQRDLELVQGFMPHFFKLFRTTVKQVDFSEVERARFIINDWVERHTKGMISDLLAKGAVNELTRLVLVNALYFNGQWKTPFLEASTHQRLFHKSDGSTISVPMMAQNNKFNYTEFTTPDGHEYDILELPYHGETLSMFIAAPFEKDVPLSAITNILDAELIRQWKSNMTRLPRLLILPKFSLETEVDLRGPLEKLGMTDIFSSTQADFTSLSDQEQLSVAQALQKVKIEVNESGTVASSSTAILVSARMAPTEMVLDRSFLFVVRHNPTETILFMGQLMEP
Nature of the assay: cell-based or functional assay.

Assay [3] deals with T3, cynomolgus PAI-1 (cynomolgus, UniProt P05121 24-402 (human entry), limits assumed). The assay can be described thus: cell-based or functional assay.
The target of assay [4] is T4, mouse PAI-1 (mouse, UniProt P22777 24-401).
T4 sequence: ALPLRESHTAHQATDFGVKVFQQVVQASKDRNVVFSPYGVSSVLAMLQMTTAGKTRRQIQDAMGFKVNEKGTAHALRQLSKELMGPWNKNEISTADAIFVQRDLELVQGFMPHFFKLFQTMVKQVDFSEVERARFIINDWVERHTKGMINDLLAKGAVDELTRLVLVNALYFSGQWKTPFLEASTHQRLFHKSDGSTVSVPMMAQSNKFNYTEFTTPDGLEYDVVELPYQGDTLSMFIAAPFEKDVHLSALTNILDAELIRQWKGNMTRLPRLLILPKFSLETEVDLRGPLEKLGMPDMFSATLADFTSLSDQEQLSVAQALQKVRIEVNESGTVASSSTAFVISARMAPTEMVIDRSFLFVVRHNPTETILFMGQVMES
Nature of the assay: cell-based or functional assay.

Assay [5] concerns the target T3, cynomolgus PAI-1. Nature of the assay: cell-based or functional assay. This is another data set of the same source.
In assay [6] the target is T4, mouse PAI-1. Nature of the assay: cell-based or functional assay. The source holds these as a separate data set.

B1: rabbit PAI-1 (other)
chain: SYPHQPQLTTAGETQQQIQAAMRFKIDEQSTAPALRHLHKELMGPWNKDEISTTDAIFVQRDLKLVQGFMPHFFRLFRTTVKQVDFSDVQRARFIINDWVERHTKGMISDLLGEGAMDQLTRLLLVNALYFNGQWKTPFSKSGTHHRLFHKSDGSTISVPMMAQTNKFNYTEFLTPDGHYYDILELPYHGETLSMFIAAPYEKQVPLSALTNILSAQLISQWKGNMTRVTRLLVLPKFSLESEVDLRAPLENLGMTDMFRPGQADFSNLSDQELLHVSRALQKVKIEVNESGTMASSSTVILVSARMAPEEIIMDRPFLFVVRHNPTGTILFLGQVMEL
For the molecule B1, in assay [1], the “IC50 (read off the curve)” value is roughly 3 nM.

B2: PICK167_A01-fgl IgG1 (antibody, V domains shown)
VH: QVQLVQSGAEVKKPGSSVKVSCKASGGTFSSYAISWVRQAPGQGLEWMGGIIPTFGTANYAQKFQGRVTITADESTSTAYMELSSLRSEDTAVYYCARERRQWLEGHFDYWGRGTLVTVSS
VL: DIQMTQSPSTLSASVGDRVTITCRASEGIYHNLAWYQQKPGKAPKLLIYKASSLASGVPSRFSGSRSGTEFTLTISSLQPDDFATYYCQQYSNYPLTFGGGTKVEIKR
Regarding B2, the “pIC50, HT1080 plasminogen activation assay” value in assay [2] is 7.87 pIC50; with rat PAI-1 it was 7.64 pIC50.

B3: Antibody 08 scFv (scFv)
chain: QVQLVQSGAEVKKPGSSVKVSCKASGGTFSSYAISWVRQAPGQGLEWMGGIIPTFGTANYAQKFQGRVTITADESTSTAYMELSSLRSEDTAVYYCARERRQWLEGHFDYWGRGTLVTVSSDIQMTQSPSTLSASVGDRVTITCRASEGIYHNLAWYQQKPGKAPKLLIYKASSLASGVPSRFSGSRSGTEFTLTISSLQPDDFATYYCQQYSNYPLTFGGGTKVEIK
Turning to B3, the “IC50, cyno chromogenic assay (FIG. 2b)” value with cynomolgus PAI-1 [3] stood at 0.8 nM. Besides, in the assay with mouse PAI-1 [4], the “IC50, mouse chromogenic assay (FIG. 2d)” value was 2.6 nM. Further, in the assay with cynomolgus PAI-1 [5], the “Chromogenic (IC50 in nM) cyno” value is 1 nM and the “Chromogenic IC50 ratio cyno/human” value turned out to be 0.3 fold. In the assay with mouse PAI-1 [6], the “HT-1080 Exo PAI-1 (IC50 in nM) mouse” value came to 26.2 nM.
